# Experimental data taken from the domain aggregation screens of Martell et al. (2025).
# Assay: soluble fraction after stress (log2 fold change); higher = more stays soluble; pooled small domains, quantitative proteomics
# Details: stress: 50 degC
# How it was run: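 After stress at 50°C, the amount of each protein still soluble was measured. This was done on pooled custom libraries of small protein domains, using high-throughput quantitative proteomics. The figure given is a base-two log fold change and stands for aggregation propensity, with higher values meaning more protein stays in solution.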
row,Sequence,soluble fraction (log2)
1,HMGEVISRSYPLLKTKAKPAEVSEALQKLIKAPATVTFDEKNEVFHINATRLQHTWAEGYFKGLHGK,0.0333
2,HMGSDQEAAMARQDRLSTLVDYVVERGSVHVDDIVADLGVSPATVRRDLDALAAQQLIIRTRGGATANHT,0.0263
3,HMGPAAGVVEKYNLAHLSTGEMIRKEIAEGSDFGKMAAGIINKGELLSDEFVVALIENSIEHHKNVDGFLF,-0.00841
4,HMSYTWHDMYLLAQEYQKEHGNLIIPRNYKGKNGLNLGYWLYKEKLKYRQGKLAPEKIIALEHIGIVWT,-1.21
5,HMAAVAPPVLERIASDLATRFAGTLSPETVDRYVRESYHLLAERAGITRYLPSLTARFAGDRLDA,0.0481
6,HMKESRFDYDAVLLYSDKDSITEVKDAVQHLTKEFGSVFTTKKIPEKATFGKLFRIEKGEVNIIEDN,-0.0248
7,HMRDPLNTGFRQTLKDIVNSLPKNELYSPGVREEYIYPKIGVTSLGMEASMVLNGLISSRRKNIELKEKN,0.447
8,HMGGPEPIPAQIREGDTVYVTKFKQLGLVLKISEDTAEVQIGPLRATVAKTELSKVDATATEHR,0.158
9,HMLPERIQTIVALIGHGRAMDLVREFGGQEIKFPAQEGNDTWAALVEVIGEAATRKLAAVFGGGQAPPVYI,-0.778
10,HMISKRFQIDEDNSNKRIDIFLTQSLDSISRGIVQQLILENKVEVNGGPVKRNYLIKIGDVIDVKIDL,-0.939
11,HMSVSATQMDAFVRQLRARLSSADGLDDAARLVRQDLEPFLGRFSDETERDFAAAIEQVRGSIRPVEI,0.0229
12,HMTDDPGLSRAENRELQTLLLDRGHDIGQPDGLIGAKTRAAIRAEQSRLNMPVNGRGGQKLLRALRL,0.372
13,HMKRAVGLDEYRDSIVLKKPEGYTEESYAAYKNAYDALMALDSKETTAEMFANAKSAFEAAQAGLVQKP,0.101
14,HMNKNLQLMINEIKKGLASEDIETRKKSVLMLSRIDAPEIIQVLEPLKDDSSEEIRKISSKIISVLSKKYT,0.168
15,HMATPTMEDYIEVIYSLVKTKGYARSADIAEKLEVYPSTVTKMLKKLDAEGYIVYEKYRGIALTDIGKKMG,-1.73
16,HMTLPGQDFIRASQLKELIAKYDKQYYEEGVSDISDAEYDRLYEEYLEFENKYPELKDMADAPTKRV,0.332
17,HMGQSKNERMLELVELLNKASRSYYQDAQEIMSNYEYDRLYDELQNLEKELGITLSNSPTVN,-0.0536
18,HMEKPAQDVLASHREWMGEMIKAEHMTAKQVWRLLRERADIGVSYPTVKRYLRAHFQFGGPS,-1.28
19,HMPGGLSAEDVEKMVEKVLTVNGDVVEEIRSGRDPKGKKIKFLAGLVMRDARGQADAAAVSGILERRLKEG,0.133
20,HMPGRPSRISDAVKDQIDHDLRKNPRDLGYSQNLWDGKLLSHHLKERYQITLGIRQAQRLFHQLGFRQR,-0.0323
21,HMAVNQEFKNTINRIKYEYSLNQSQIADRLGVKKTYLSDMINGRVPYNETMNKKVNDVFPLPP,0.11
22,HMSMNSWFVEKERDNTRIDKFLNEQMADISRSYIQKLIKDDLVTVDLRPVKANYKVKEGDRVEVTLPEPV,0.0182
23,HMDFVKGDTVVFIDAFMPDHLMTIHKVQGEGILLDGNHKFALAHLIRHASTVELNAKRRLSLTEQS,-2.05

row,Sequence,soluble fraction (log2)
1,HMQIVHKHLQLQPDQGALRAALYSHKAVVAEQVNEQGAINLEIKLAESDFLRLLKSSGLKLQDLVSLS,-0.205
2,HMGDFVIVPDLIGKTIEEFDSELNELNLKYIISDSGNYNPDFKINSVLDQLPNANSKVKGGRKIYITLNAS,-1.37
3,HMALPRYFFRTRENGAVLFKTPVNNHQNRLEMHQIAAINIRNETVKPLGDTVLTDEETELIADWMRERKTV,-0.72
4,HMETLKLRDSGKEVQSLQELLQRQGLSAPMNGIFDEATKSSVIAFQKANGLDADGIVGYKSWETLFTAG,0.132
5,HMSLTEDELFHALTIYANREGINIGATELKYLLTHYARNLGKLIELINQVSQAATMQKKPITIPLIKHS,-0.428
6,HMFQPFFENLRKASIPVSLREYLTFLEGMKKGLVTYDIEAFYFLARAAMVKDERNIDKFDRAFSATFKG,-0.287
7,HMEVGVSGTVFNTDSLNVRKGPGTNFDTVTSLKRGSVVEVFEQSAVDGTVWGRIANGWVNMQYVSL,-0.093
8,HMNLDVPGIIKRAKQALNLKRDSELAEFLGVSRATVTNWAARNSIDFRLLLDKLGNTVDYNWLLLGKGNPK,-0.221
9,HMDIDLGAVEEQAVKGSGPGGQKMNKTSSGVLLRYRLGEELVLVKWTRERQHSLNRFLALRELVDEIEAR,≥ 0.62
10,HMTTHEQVAILRRELNGLVGAWHHRTGQAHGVTHSKLRKELGGPPAAVASAAQLSARIEKIRQWAT,-0.635
11,HMSGYAIVNNQPGRTLNLRNSPSQSNNIIGQIPSGTRLQLISRGETWSEVIFQTTRGFVMSSFLRFET,-0.809
12,HMFELDELDLVILKNLANGLSKKQIRVKLKKMDLRPNSESAIDKRVSKLFDEFGAKNSTELVAKLIREGL,-2.55
13,HMVIDFYDPQTKVIHEIKKSSAKEEAHVWQVKYYIYLFEKEEIMGVKGVLEYPLLREIVSVNF,0.187
14,HMGQELTPVERTALDIAARDGKVSTRILAQEAGIGLRTASKTLAALAERGLLTWHGTSRRDPQQHYTS,0.00201
15,HMAQRFDLGDKLNPQSSEFEYLGTSSRTGVSTYRYKNVPTQLFFGRQIGDIVVGVRRGMITLTIYNL,-0.0451
16,HMDVEMLIDKYQLNDSEAEVLRFMKKNRQSLKTIGIRDVAKATYVSTATIINMAKKIGYSGYSELVFALGN,-0.0472
17,HMEIFSIEPDSYLGSGEEIASYYREGVTVIVNMAKLSDAESLRMVDFMSGLKLALLGNIKRITKHVYLLTP,-0.0901
18,HMNVAVPTPADKRKVRVMKADINAKLRVNDANGAYAVYEELKEWVTLKGFTEWNDDLSKLSETMGSMKRKV,-0.0289
19,HMSGSLLQTRQRLQALTDLGHYKGDLAAAWGPEAIEALKRAQAALGITVDGKWGPETEDAIQVALQAQT,0.0305
20,HMGGNDALEIAKSNPQVIEVLGEPVTKDGMGSYSVNYKNGHKTSEATIPIEGPNGTATLHVKTSGSDDAL,0.261
21,HMEIPTPAELREKRIRMGLKQADVARMAGISQSMVARIESGSVDPRVSTLAKIVEVLQAAER,-0.175
22,HMSVGDLPPEAREIWKLLDGRELSLDLLAEETGRETGALLSTLMMLEMKLLVEHGSDMVYRRIPRR,-1.78
23,HMETINERVNSIIEREGHTVATFAKKIGVPWTTIKNIVSGRNAPSYDIMVKIINAVDWVDANYLVMG,-1.98

row,Sequence,soluble fraction (log2)
1,HMGTGELLVHVIGAVHSPGVVRLPTGARVVDAIDAAGGAREDAQTEQLNLARLVDDGEQVRVPVVGESVD,-0.0181
2,HMLRQRVFRIIQNNINSKNYFVYTKQILAELAGISMRSLNRTLSELQNDRLIIVDSGTIRLFT,-1.49
3,HMKIETVENPLLERTEISALFDSKSGSLTRKEAIDLISKKARIDSSTVYAIKLSNSSGSTRIIGLFY,0.0692
4,HMLENYEGFKQKILKLTGIDLSSYKERQMRRRIDSLIHRNNYDDYDEYFKALTQNSNLYDEFINYLTI,-0.539
5,HMEDSSSILNRMRKLIALLNRASEAYYKENKEIISNFEYDRLYDELLGLESRSNTVLSGSPTYKV,-1.63
6,HMSLMLYVEDVDTAFKKAIELGATEIRPVHDQFYGDRAGTLQDPFGHIWIIGTHKEDVSDEELNNRIGNI,-0.0131
7,HMYLLPVTSTELKGNYPNPFNPETTISFDLKDAERVNLSIYNLKGQLVRTLVNSDLPIGRHRLIWDGNDS,-0.603
8,HMSAAYVYVTGTRVNQRDGPSTFDRVMGVLVEGTRVQLLRDQGQWAQIRSDLGTGWLSSGFLSRNG,-1.87
9,HMNGDWISARQEYYIRGLWDLASRAKDEASLQAMLQRIAGVTQIEWISKEKATKVILALRDIAKK,-1.68
10,HMGMDALIGRRVFVSEEILPGDTGGRMAVDGDSWRAISVGTASNIPAGTEVRIRGHQSLVLEVEP,-0.116
11,HMGTDGLKDIVLEILKEHPNQLAELIDGKQKVLGFLVGQVMKKTNGAANPKEVNEIIQGEIKK,-0.0707
12,HMKYTVKSPLPGVIMSVLVKVGDTVKASDTVISLEAMKMENAIHAGRDGKVTSIDVNVGDSVLEGHTLVTI,-0.386
13,HMRKYEAVPASVVPAQIQEYVAKSNFPNQYIRKIERNKYTWEIELSNGLEIKFDRQFNVIGFD,-1.49
14,HMDHFLRRFQVEGLNLEKLLRLAAEREMDLLQVRRSGRRMTGLVAEKRLPELEELAAQGGWALRLGEY,-0.268
15,HMDTFNVIARQEIDGILYEYKIMTVEDYKNQSPENLAVIYENIKAVMEQYDLSEDDADAILVDLLG,-1.12
16,HMRNLYEILGVSKDAPQGEIKSAYRKLAKTYHPDLNPNNEKAAELFKEINQAYEVLSDETKRRHYDQFGEA,0.312
17,HMVGNYYDILGVPETATQDAIKKAFRSLAQQHHPDKNPDDPGAEAMFKKVSEAYQVLSDPDKRQTYDASL,0.00894
18,HMNKETYIDALERKLWDRLDPDQLRDIISYYKDYFAMEAAKGISEEETIRKLGDPALLAKSILAAE,-0.335
19,HMPDVAIMNVSVEPEKKVVRLQVKAISLEALLDFSTRLEAIPARVELQNHTPSKELSQKWAVNATLIVIY,0.146
20,HMPFREGDEVFVELVEPHMYNEDDAVAKLDGYVVAVRGAAGLVGQKVLVRIERVGRSSAEATLVA,0.109
21,HMDAHYMEMKGKTGTAFTMLRPAGKIDIEGQIFDAVAEAGFIEKGEAIRVVKYENAQLIVRK,0.11
22,HMGASGVEVPDVAGMSTAQAVSSLEQKGFVVNRTESYDAGVEKGNVISQSPEGGTKAPNGSAVTIRISQGA,0.428
